Experimental data reported in patent publication US20180142222.
Where two headings read alike, the source gives them in different places.

Columns and labels:
[1] = target: Cas9HNH (Cy3/Cy5-labelled reporter Cas9; dCas9HNH for binding data) C80S,C574S,S355C,S867C (Streptococcus pyogenes) (UniProt Q99ZW2); conditions: direct binding assay estimate
[2] = target: Cas9hinge (Cy3/Cy5-labelled reporter Cas9) C80S,C574S,D435C,E945C (Streptococcus pyogenes) (UniProt Q99ZW2); conditions: bound but (ratio)A indistinguishable from apo

full-length sgRNA ; PAM-distal mismatch DNA
binding ([1]; (ratio)A falls with mismatch number, dCas9 gives stable footprint on these substrates): > 89 % bound

full-length sgRNA ; on-target DNA
binding ([1]; large FRET increase on target DNA): > 89 % bound

sgRNA delta-spacer1-20
binding [2]: > 95 % bound
